Results published in US20190322729A1.

What was measured:
[1] = tested on: T1, unmodified H1.0 peptide AKPVKASKPKKAKPVKPK
T1 sequence: AKPVKASKPKKAKPVKPK

[2] = tested on: T2, H1.0K180me2 peptide AKPVKASKPKKAKPVK(me2)PK
T2 sequence: AKPVKASKPKKAKPVKPK

| Substance | in vitro methylation with tritium-labeled methyl donor, autoradiography [1] | in vitro methylation, LC-MS spectral counts: share of peptides dimethylated at K180 [1] | in vitro methylation, LC-MS: further methylated product H1.0K166me1K180me2 [2] | in vitro methylation, LC-MS: further methylated product H1.0K174me1K180me3 [2] | in vitro methylation, LC-MS: further methylated product H1.0K174me3K175me3K177me1K180me2 [2] | in vitro methylation, LC-MS: share of peptides further methylated [2] |
| --- | --- | --- | --- | --- | --- | --- |
| G9A methyltransferase (recombinant, NEB M0235S) | The appearance of a band at 4 kDa shows that The G9A methyltransferase capable of methylating H1.0 peptide | 99.9% of all peptides | 1.27% of the total peptide in the reaction | 1.06% of the total peptide in the reaction | 0.35% of the total peptide in the reaction | only 2.64% of peptides are further methylated |
| GLP methyltransferase (recombinant, Cayman Chemical 10755) |  | 96.6% of all peptides |  |  |  | 1.02% of peptides are further methylated |
